{"source": "the DeepSol protein solubility set"}
{"assay": "soluble on expression in E. coli; label from the status in PepcDB or PDB records"}
{"sequence": "MDAFRLAPCGPLRGRLRVPGDKSVTHRGLMLLALAEGEGRLFYPLKAGDTLSTARVLQALGAEVREEGPHFLVRGRGLRFQEPEDVLDCGNAGTLMRLLLGLLAGQEGLFAVLTGDASLRRRPMGRVVAPLRAMGARVDGREEGERAPLAVRGAPLRGLRYTLPVPSAQVKSALLLAGLFAEGVTKVEEPTPTRDHTERLFRHFGLPLEVEGRKVRTWRTGPFPAKDLVVPGDFSSAAFFLVAALVTPGSEVVVEGVGLNPTRTGLLTVLKAMGADLEWQVLEGEAGEPVGWVRARHSLLKGVAVDPGLIPLMVDEVPVLAAAAAWAEGETYIPGLSELRVKESDRVRAIAENLRALGVEVEEGPDWLRIRGGGVRPGRVRPFHDHRIAMAFAVAGLPVGVEVEEPHWAEISYPGFFQDLLRLCAAS", "soluble on expression in E. coli": "soluble"}
{"sequence": "DDLPYRFGLGKADITGEAAEVGMMGYSSLEQKTAGIHMRQWARAFVIEEAASGRRLVYVNTDLGMIFQAVHLKVLARLKAKYPGVYDENNVMLAATHTHSGPGGFSHYAMYNLSVLGFQEKTFNAIVDGIVRSIERAQARLQPGRLFYGSGELRNASRNRSLLSHLKNPDIAGYEDGIDPQMSVLSFVDANGELAGAISWFPVHSTSMTNANHLISPDNKGYASYHWEHDVSRKSGFVAAFAQTNAGNLSPNLNLKPGSGPFDNEFDNTREIGLRQFAKAYEIAGQAQEEVLGELDSRFRFVDFTRLPIRPEFTDGQPRQLCTAAIGTSLAAGSTEDGPGPLGLEEGNNPFLSALGGLLTGVPPQELVQCQAEKTILADTGNKKPYPWTPTVLPIQMFRIGQLELLGAPAEFTVMAGVRIRRAVQAASEAAGIRHVVFNGYANAYASYVTTREEYAAQEYEGGSTLYGPWTQAAYQQLFVDMAVALRERLPVETSAIAPDLSCCQMNFQTGVVADDPYIGKSFGDVLQQPRESYRIGDKVTVAFVTGHPKNDLRTEKTFLEVVNIGKDGKQTPVTVATDNDWDTQYRWERVGISASKATISWSIPPGTEPGHYYIRHYGNAKNFWTQKISEIGGSTRSFEVLGTTP", "soluble on expression in E. coli": "soluble"}
{"sequence": "MYEGLLIDIDYLLNVVKELKINFDKKIKTLNLLIERNIPIVLYTENNKEYVDTIMKYLKIKEPAIIVEGAQIYSPFDLSYEAVFPLSINTVCKLGNWAMDRKMDMSISTDKKVIDYSEWLKELRQVNYKNAGDKLPSAVKVDICMKNDDKRIELLNFIGKNNLECYAHMYLNHVACINSIVDKGNTLKYLANKKKWDIKKFAMIGDYSKDTSIFDEVGF", "soluble on expression in E. coli": "not soluble"}
{"sequence": "MGSDKIHHHHHHVVTPEDSPRYPYGNCLYVEDDIPAVLDLGAGGRAFQEIPCEKVQLALISHSHFDHLHGDSFFPRAGLYAGKEESKTYSDENEYLKFHGYELWAEMMPGIKRVAFSEVKPLPDDVPVKPGFRYIPLAGIFKDMERFQLGKTEITAIHLPGHTTGHYGFWIEKEGILFSGDMDLVVAGPWYSSNSADIGQLVSSVQRIREINPGLIVPSHRRLIFDKIEKRLDQYIGVVFKRQERILDLLKEAHTIDELLEYQMVFHGRRDIYLLFWEKMTLRNHIRFLLWEGMVEEVEKGRYKRC", "soluble on expression in E. coli": "not soluble"}
{"sequence": "GEMDERLLQKYRAQVFEWGGCFDKMFEALKSLIYLSEFENSEFDDEERHLLTLCIKHKISDYRTMTSQVLQEQTKQLNNDELVKICSEYVFSLRKDIKAFLQSFEDCVDRLVEKSFFSKFFKLKVKSDISRYKLEFGLCSLEDSKKIHQDAFTLLCEHPDKIEQLPLGFIQNLAYILSEKYGEKKQVFNMLNSLGKILELQIKEQENMDRKAQITVYLQGIKDYIEK", "soluble on expression in E. coli": "soluble"}
{"sequence": "FSNNNFVYTDGTHFALNGKSLYINGFNAYWLMYIAYDPSTRIKVTNTFQQASKYKMNVARTWAFSHGGSRPLQSAPGVYNEQMFQGLDFVISEAKKYGIHLIMSLVNNWDAFGGKKQYVEWAVQRGQKLTSDDDFFTNPMVKGFYKNNVKVVLTRVNTITKVAYKDDPTILSWELINEPRCPSDLSGKTFQNWVLEMAGYLKSIDSNHLLEIGLEGFYGNDMRQYNPNSYIFGTNFISNNQVQGIDFTTIHMYPNQWLPGLTQEAQDKWASQWIQVHIDDSKMLKKPLLIAEFGKSTKTPGYTVAKRDNYFEKIYGTIFNCAKSGGPCGGGLFWQVLGQGMSSFDDGYQVVLQESPSTSRVILLQSLRLSKLS", "soluble on expression in E. coli": "soluble"}
{"sequence": "MVELCELHMMPEEDQWPDDIDARIAALNFCGEDSMLFESVDPSVSTDSLDSQQFRERCQMKKEDFQLAFADSGHWQSGINDNLTTWGRIRTSEPLDERTASAPDVWNVKRSDSARSPNRPNSLIANFVSGDATRFVDVNDNEIREANEEIIRKDRWRRDSARRCSSGGQNQKRTFADILEKNVTAPTSMAITSSDNEKPPKLDFLAMHHEMPSLCESFTASFRDAIIKMQKCEPLPSITSTNDFPLFFQEDSPDSGLGCSGPSHIEDWQSLSVLLPKHVAEACSFFKSNTQLLTSSTSKTAPQTSTNIVSNCIDRRISGISASANEACRTCYRVRRRIHPPVWAQTAQSKTVLCDCASTPTDTNFSFAPTTSTTRHQLRAKELSIVGLPIYAAKRTLVENVVEGVAAISRGDGSDLLVIAMRCLIEDGLQENVSAWTMIQTVTSKGPATKDVHSIVKQLEECSKTDNVKVEIFFEELIRENSLDCWLCYIVLKEKVLKTLYSENAFLLSASSEYRTLLWRMVDSLSLLPVIEARSDSVHQQFKSMQQWGGASRIASDSRVPKSSSFPARLSTAPSRRSRIPLSTSRISISSTTSTPRSARSPSTTSRIRVASIMGDFTLANFSLSDGEKVSVLSTRGGLARCVRLTTSHSKINNGVIPIEHLLFQ", "soluble on expression in E. coli": "not soluble"}
{"sequence": "MSARKLFYLGPQGTFTHQAAVNAAQELARFEPQGFDLMPMDDVPQILDAAQHGDGWGIVAWENNVEGYVVPNLDALIDAKDLVGFARVGVNVEFDAYVAQGADPAEARIATAHPHGLAQCKRFIAEHRLSTQPATSNAAACRDLIPGEIAFGPAICGELYDITRIGTAIQDYQGAATDFLVLSPRAE", "soluble on expression in E. coli": "not soluble"}
{"sequence": "MGRNKEFDTALVLHRAIEVFGEYGYEGTSLQDLLSHLGIARQSLYDTYGTKRDLFLSAVKSYLEGKNAAVMERLEAPGSVKEAIRDIFQEGVNALRDPERAKACYIINSAIEQIPHDPELARYFERQSKQLEDAFYHGLLRAKDQGELNGEDTDISALARYLNQSRLSLTFIAKVTADMDRLQDHVDVSLSVLD", "soluble on expression in E. coli": "soluble"}
{"sequence": "MHFGKHNVDFMLPSLRKEWEDPEKIVSQIPIQPNFDIVDLGCGPGFFTLPLSETTDGKVYAIDASQEMIDALKQRIDGRSNIVTIKAPAEKIPLPDLSADLVFIANAYHDFDDRDEVLSEIYRILRAGRFLVDIDWKKEETTRGPPIDIRIDKKEAMLEIASHNFDIESEIEAGPHHYGLIFKKILEHHHHHH", "soluble on expression in E. coli": "soluble"}
{"sequence": "MASINWSEISTVLIDMDGTILDLHFDNHFWLEHLPARYSEKMSISLDAAKAKLKADYLSVVGTIKWYCLDYWAEQTQMPITELKREIQHLIQLRTDARDFLIALKASGRDVVLVTNAHPESLSLKIERTQLDQYFDVLYSTHDFGVTKESQLLWQRLQEKHGFDCDSTLFIDDSIEILQSAQQYGIKHLLAVANPDSKKTANVITDFPAITSFDLLTAQLSKELINSTSN", "soluble on expression in E. coli": "not soluble"}
{"sequence": "MRWKRTLQLLDVHCEGEIGRVVTGGAPKIPGNTVAEQLHWMNTDPQGEALRRFLTLEPRGTPMGSVDLLLPPKHPDAHAAFVILQPDQAHASSGSNSICATTALLESGMVEMQEPETVIILETAAGLVKATATCRDGRCEKVKLTMVPSFVHELDVSIDTPEWGRVTMDISYGGIFYALVDVRQIGLTIEKANAAKLVAAGMTLKDLVNREMTVVHPEIPAISGVAYVMFRDVDADGSIRTCTTMWPGRADRSPCGTGNSANLATLYARGKVKVGDEYKSRSIIGSEFDVGLSAVTEVAGRPAVIPTIAGRGFTFGLHQVGLDPFDPLGDGFAMTDVWGPEAGNILEHHHHHH", "soluble on expression in E. coli": "soluble"}
{"sequence": "MGSDKIHHHHHHSQTRYFADKKVSKSKNIVAADKVTDKEKETETWTSIPQRAVAYQELTTYEDSNLTKSVGKIPAKTQLDIPEIVGKSFKLKTGKYISTDKKAVISDLTISRESINTTIYTDKSVNVFYNPVTTYDNQIMTNLSGTHQLSADKMAKTNWGTYYEVSLDNGQKGWVSENDISLENPKIKQVQALLNQKYNDKKYSIYVKELDDKFTAGVNQEQKMYSASLSKIPILYWTQKRLNEGLASLDDKLLYTPAINTFYGSYKPEGTGNLPKTADNKYYSLQDVINRTAKLSDNVGSNMLAYYETQEFNPNYQKEINRIAGQEWNPKERNASAQMVGRMLEALYNEGGASFNALFDTSFDDVKIRAGVPKNISVAHKIGGADTDNHDAAIVFASKPYLLVIETDGATDDEIKAISQDVYGVMK", "soluble on expression in E. coli": "not soluble"}
{"sequence": "MGSDKIHHHHHHMNPCGFNKCYIQPSADLSVSLQIVSGKSRASISEIGSHMDSLQIDGLDILLHSYDGSPTHFGSAFLFPYANRVKDARYVMDGVEYRLPNNEGKNSIHGLVLDKNFSVISREEESITMETSIAGGEAYPSDLSVRISHSVDETSYRCEVTVINKGVKRSPIAAGFHPYFVYKNKWAIIKPETAWIMEYDGPFPTGKMDRMTFGDISYLNAYDNQFFADSDIIVDVGYSRLKITRNNMPFFVIYNGRYSAGSSVAIEPMMSAVDSFNNGIGLRLLNPGDTMKFGYSIDIV", "soluble on expression in E. coli": "not soluble"}
{"sequence": "AAEGERAEPLRPSQSGARPCRAVGNMHFSIPETESRSGDSGGSAYVAYNIHVNGVLHCRVRYSQLLGLHEQLRKEYGANVLPAFPPKKLFSLTPAEVEQRREQLEKYMQAVRQDPLLGSSETFNSFLRRAQQETQQVPTEEVSLEVLLSNGQKVLVNVLTSDQTEDVLEAVAAKLDLPDDLIGYFSLFLVREKEDGAFSFVRKLQEFELPYVSVTSLRSQEYKIVLRKSYWDSAYDDDVMENRVGLNLLYAQTVSDIERGWILVTKEQHRQLKSLQEKVSKKEFLRLAQTLRHYGYLRFDACVADFPEKDCPVVVSAGNSELSLQLRLPGQQLREGSFRVTRMRCWRVTSSVPLPSGSTSSPGRGRGEVRLELAFEYLMSKDRLQWVTITSPQAIMMSICLQSMVDELMVKKSGGSIRKMLRRRVGGTLRRSDSQQAVKSPPLLESPDATRESMVKLSSKLSAVSLRGIGSPSTDASASDVHGNFAFEGIGDEDL", "soluble on expression in E. coli": "soluble"}
{"sequence": "MGSDKIHHHHHHMTAGRIRIDEVIKDGEKIIAVSRTSPFYPDGKGGQLGDRGKIGPANVLKVKEKNGYILHYLDAHLEPGDYECEIDPARRKDIACQHTAQHILSAAFLKVADLETVSFHMGERVSTIDLNAPFVLEDVLEEAEDLANEVVRSCERVEILEIEKEEAEKMNLRKLPNVEGKVRVVKIGDFDVTACGGFHVENTGEIGLIKIVDTEKVKKVLTRIYFTAGDRALKDYREKDKLLKSLSRVLTTSTKELLKRAENLLEEVKEKSAKLDKLSEKYAEILSKVAEPEKVGKYYLYHFSGTPEEMKYLPKFLADRKDTIVLLEHPDRIEIVSNWIDCRKIFEKLKDQLNVEGGSSQKRAVITANSASRIVEKLREILKWF", "soluble on expression in E. coli": "not soluble"}
{"sequence": "MKSKVAIVRTKPSTVLEDYHRLMNLAEYQNYISKDVDTALKINISWHFFYPGSSTTPWQLEGVIRALKRDGYNPELIHGCHNRTVVIDAHLGERENKQINVIKAHNLRNIHLYEGEEWIDIREAVGDLTKKFLCLNEVYPKGFSIPKRFIGENIIHLPTVKTHVFTTTTGAMKNAFGGLLNEKRHWTHPVIHETLVDLLMIQKKIHKGIFAVMDGTFAGDGPGPRCMVPHVKNVLLASADQVAIDAVAAKLMGFDPLKDCKYIRLAHDAGLGCGDVRQIEIVGDVDALNENWNFVGPYKKMTFASKCQHLIYWGPLKKPVEWTLKTILAPWSYIASVVYHDMYWYPKNYGRVEEILNSDWGRLFANWEQLQLPADDLSVPGWEHVGDKPLKLDKETSKMIRKAFRVLGTAIREAPEFSAKKSKKACK", "soluble on expression in E. coli": "soluble"}
{"sequence": "MGSDKIHHHHHHMASFQSFGIPGQLEVIKKALDHVRVGVVITDPALEDNPIVYVNQGFVQMTGYETEEILGKNCRFLQGKHTDPAEVDNIRTALQNKEPVTVQIQNYKKDGTMFWNELNIDPMEIEDKTYFVGIQNDITKQKEYEKLLEDSLTEITALSTPIVPIRNGISALPLVGNLTEERFNSIVCTLTNILSTSKDDYLIIDLSGLAQVNEQTADQIFKLSHLLKLTGTELIITGIKPELAMKMNKLDANFSSLKTYSNVKDAVKVLPIM", "soluble on expression in E. coli": "not soluble"}
